Reference: the supplement of paper PMC7125110
± gives the standard error. Fewer inactive variants are shown than the library holds.

B1: glmS ribozyme (parent)
chain: AUAAAAGCGCCAGAACUACAGAAAUGUAGUUGACGAGGAGGAGGUUUAUCGAAUUUUCGGCGGAUGCCUCCAAA

Assays:
Details in all cases: with glucosamine-6-phosphate
glucosamine-6-phosphate [1] = variants of: B1; assay: self-cleavage kobs at 160 uM GlcN6P; higher = faster cleavage; RNA array
How it was run: (§1)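 Sequenced MiSeq chips were the platform: E. coli RNA polymerase transcribed barcoded ribozyme variants on them in situ, and a hybridised Cy3 probe tracked these at 37 °C. After glucosamine-6-phosphate (40 μM to 10 mM) in HEPES/KCl/Mg(OAc)2 buffer was flowed in, tiles were imaged over ~14 h. Signals normalised to baseline and to non-cleaving reference variants were reduced to per-tile medians and fit to one- or two-exponential decays to obtain kobs. kcat and KM were derived through weighted Michaelis–Menten fits across concentrations.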

glucosamine-6-phosphate [2] = variants of: B1; assay: self-cleavage kobs at 2500 uM GlcN6P; higher = faster cleavage; RNA array
How it was run: as §1

glucosamine-6-phosphate [3] = variants of: B1; assay: self-cleavage kobs at 640 uM GlcN6P; higher = faster cleavage; RNA array
How it was run: as §1

glucosamine-6-phosphate [4] = variants of: B1; assay: self-cleavage kobs at 10000 uM GlcN6P; higher = faster cleavage; RNA array
How it was run: as §1

Row | Variant | self-cleavage kobs at 160 uM GlcN6P (glucosamine-6-phosphate [1]) [s⁻¹] | self-cleavage kobs at 2500 uM GlcN6P (glucosamine-6-phosphate [2]) [s⁻¹] | self-cleavage kobs at 640 uM GlcN6P (glucosamine-6-phosphate [3]) [s⁻¹] | self-cleavage kobs at 10000 uM GlcN6P (glucosamine-6-phosphate [4]) [s⁻¹]
1 | G7U C19U G38U | < 1e-05 | < 1e-05 |  | 
2 | U47A U65A | 0.000347 ± 7.5e-05 | 0.00331 ± 0.00064 | 0.00132 ± 0.00027 | 
3 | G37C G44A U49A C68U | < 1e-05 | < 1e-05 |  | 
4 | G43C C61A | < 1e-05 | < 1e-05 | < 1e-05 | < 1e-05
5 | G40C G43U G66U | < 1e-05 | < 1e-05 | < 1e-05 | 
6 | A6G C11A A14U G40A | < 1e-05 |  |  | 
7 | A48U U49C A64U C70U | < 1e-05 |  | < 1e-05 | 
8 | A15G A53G U65C | 6.49e-05 ± 1.6e-05 | 0.000485 ± 0.00011 | 0.000264 ± 6.9e-05 | 
9 | A6C C10G A36C U49C A53U A64U | < 1e-05 |  |  | 
10 | A12C A39G C70U | 0.000758 ± 0.00028 |  |  | 
11 | U45G G66A | 0.0029 ± 0.00042 | 0.0257 ± 0.0093 | 0.00605 ± 0.0014 | 
12 | C11A A53C C67G | < 1e-05 |  | < 1e-05 | 
13 | G38C U49G | < 1e-05 | < 1e-05 | < 1e-05 | 
14 | C10G G35U | < 1e-05 | < 1e-05 | < 1e-05 | 
15 | A6C G66C | < 1e-05 |  | < 1e-05 | 
16 | A14U C16A A33C | < 1e-05 |  | < 1e-05 | 
17 | C10A G41U C68G | < 1e-05 | < 1e-05 |  | 
18 | G13C C16G G38A | < 1e-05 |  |  | 
19 | G7C C8G U30C | < 1e-05 |  | < 1e-05 | 
20 | U57A G62C | < 1e-05 |  | < 1e-05 | < 1e-05
21 | A12U A14C G40C A42U U45G | < 1e-05 |  | < 1e-05 | 
22 | A39U A53G C71A | 0.000185 ± 3.5e-05 | 0.00139 ± 0.00042 |  | 0.00323 ± 0.00089
23 | C8U A12C A42U A53U C61A | < 1e-05 | < 1e-05 | < 1e-05 | 
24 | G37A U49A C67G | < 1e-05 | < 1e-05 |  | 
25 | U46G A53U U65G | 4.57e-05 ± 1.6e-05 | 0.000976 ± 0.00018 | 0.000379 ± 9.9e-05 | 
26 | G26U A52G | 9.82e-05 ± 2.9e-05 | 0.000726 ± 0.00017 |  | 

Row | Variant | self-cleavage kobs at 160 uM GlcN6P (glucosamine-6-phosphate [1]) [s⁻¹] | self-cleavage kobs at 2500 uM GlcN6P (glucosamine-6-phosphate [2]) [s⁻¹] | self-cleavage kobs at 640 uM GlcN6P (glucosamine-6-phosphate [3]) [s⁻¹] | self-cleavage kobs at 10000 uM GlcN6P (glucosamine-6-phosphate [4]) [s⁻¹]
27 | C11G A39C G40U | < 1e-05 | < 1e-05 | < 1e-05 | 
28 | G51C G59U C71U | < 1e-05 | < 1e-05 |  | 
29 | A33U A48G | < 1e-05 | < 1e-05 | < 1e-05 | 
30 | G7U G35A G59C | < 1e-05 | < 1e-05 |  | 
31 | G13U G44U C68U | < 1e-05 | < 1e-05 | < 1e-05 | 
32 | U30G G32U A36U G60A U69C C71A | < 1e-05 |  |  | 
33 | G35A C70G | < 1e-05 |  | < 1e-05 | 
34 | A48G C50A C61G C67A C68U | 8.22e-05 ± 2.2e-05 | 9.85e-05 ± 2.5e-05 | 8.1e-05 ± 3.2e-05 | 
35 | C8G U57G | < 1e-05 | < 1e-05 | < 1e-05 | 
36 | C11U A15G G44U G60U | < 1e-05 | < 1e-05 | < 1e-05 | 
37 | G9U C11U G38C | < 1e-05 | < 1e-05 | < 1e-05 | 
38 | G26U G35A C50G U56G | 6.16e-05 ± 2.2e-05 | 8.89e-05 ± 1.8e-05 |  | 
39 | G37A G43C | < 1e-05 | < 1e-05 |  | 
40 | G44C G62C G66A | < 1e-05 |  | < 1e-05 | 
41 | U31A A42U U45A G62U | < 1e-05 | < 1e-05 |  | 
42 | A20U U56C | 0.000306 ± 8.2e-05 | 0.0029 ± 0.00075 |  | 
43 | C11U A14G C70U | 0.00076 ± 0.00021 | 0.00193 ± 0.0006 | 0.000656 ± 0.00014 | 
44 | G35A G43A U47C U56C | < 1e-05 |  | < 1e-05 | 
45 | G35C A36G U49C A53C C68U | < 1e-05 | < 1e-05 | < 1e-05 | 
46 | A33C G41C G60A | < 1e-05 | < 1e-05 | < 1e-05 | 
47 | C10G C11G G37C A53G | < 1e-05 | < 1e-05 |  | 
48 | G29U U69C | 3.84e-05 ± 1.5e-05 | 0.000114 ± 3.1e-05 | 0.000356 ± 9e-05 | 
49 | G13A G41U U49A G51C | < 1e-05 |  |  | 
50 | G35A U57A | < 1e-05 | < 1e-05 | < 1e-05 | < 1e-05
51 | G32C U69A | < 1e-05 |  | 0.00639 ± 0.0029 | 2.46e-05 ± 1.2e-05
